The results in this text go back to article PMC5957452, “Structural basis for overhang excision and terminal unwinding of DNA duplexes by TREX1” (PLoS Biology, 2018).

This data set deals with the molecule itself. Nature of the data set: crystal structure; TREX1 (15-25 mg/mL) in 300 mM NaCl, 50 mM Tris-HCl pH 7.0 mixed with DNA substrates at molar ratio 1:1.5; four TREX1-DNA complex crystals, TREX1 dimer in the asymmetric unit.

B1: Three prime repair exonuclease 1 (TREX1), mouse, residues 1-242 (C-terminal transmembrane domain truncated) (enzyme, Mus musculus, UniProt Q91XB0 1-242, looked up)
chain: MGSQTLPHGHMQTLIFLDLEATGLPSSRPEVTELCLLAVHRRALENTSISQGHPPPVPRPPRVVDKLSLCIAPGKACSPGASEITGLSKAELEVQGRQRFDDNLAILLRAFLQRQPQPCCLVAHNGDRYDFPLLQTELARLSTPSPLDGTFCVDSIAALKALEQASSPSGNGSRKSYSLGSIYTRLYWQAPTDSHTAEGDVLTLLSICQWKPQALLQWVDEHARPFSTVKPMYGTPATTGTT
notes: TREX1, Mus musculus, residues 1-242, subcloned into the BamHI/XhoI site of pET28a; C-terminal transmembrane domain truncated; His-tagged or non-His-tagged (thrombin-treated) TREX1 was used for crystallization; Crystals also hold DNA substrates and Mg2+; also called mTREX1; wild-type TREX1; source: E. coli BL21-CodonPlus(DE3)-RIPL or Rosetta2(DE3)pLysS, purified (Ni-NTA, HiTrap Heparin, Superdex …)
Take B1: the binding result is listed as “binds”.
